In patent US20210221914A1:

Tests used:
CD16b (FcgammaRIIIb) = CD16b (FcgammaRIIIb) (UniProt O75015); experiment: SPR, BIAcore 8K, antibody captured on anti-Fab chip, single-cycle kinetics, bivalent analyte model
CD16a176F = CD16a176F (UniProt P08637); experiment: as above
CD16a176V = CD16a176V (UniProt P08637); experiment: as above
CD32a167H = CD32a167H (UniProt P12318); experiment: SPR, BIAcore 8K, antibody captured on anti-Fab chip, steady state affinity fit
CD32a167R = CD32a167R (UniProt P12318); experiment: as above
CD32b (FcgammaRIIb) = CD32b (FcgammaRIIb) (UniProt P31994); experiment: as above
CD64 (FcgammaRI) = CD64 (FcgammaRI) (UniProt P12314); experiment: SPR, single-cycle kinetics, bivalent analyte model
Sequence of CD64 (FcgammaRI) (P12314 16-288 limits assumed): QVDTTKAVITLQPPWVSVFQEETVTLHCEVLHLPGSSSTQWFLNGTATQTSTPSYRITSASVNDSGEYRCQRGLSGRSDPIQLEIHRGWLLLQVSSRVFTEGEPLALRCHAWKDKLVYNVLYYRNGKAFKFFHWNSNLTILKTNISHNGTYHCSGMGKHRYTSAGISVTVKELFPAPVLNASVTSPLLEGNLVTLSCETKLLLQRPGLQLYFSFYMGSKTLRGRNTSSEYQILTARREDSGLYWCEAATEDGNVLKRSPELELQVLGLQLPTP

Sequence of CD16a176F (P08637 17-208 limits assumed): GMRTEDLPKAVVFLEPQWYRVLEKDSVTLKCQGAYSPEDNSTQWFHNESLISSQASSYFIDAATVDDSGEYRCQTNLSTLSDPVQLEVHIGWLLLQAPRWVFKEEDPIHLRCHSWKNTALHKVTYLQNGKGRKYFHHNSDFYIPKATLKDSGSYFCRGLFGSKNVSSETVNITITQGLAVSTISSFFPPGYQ
Sequence of CD16a176V (P08637 17-208 F176V limits assumed): as the sequence (P08637 17-208 limits assumed) above, with F160V counted along it
Sequence of CD32b (FcgammaRIIb) (P31994 46-217 limits assumed): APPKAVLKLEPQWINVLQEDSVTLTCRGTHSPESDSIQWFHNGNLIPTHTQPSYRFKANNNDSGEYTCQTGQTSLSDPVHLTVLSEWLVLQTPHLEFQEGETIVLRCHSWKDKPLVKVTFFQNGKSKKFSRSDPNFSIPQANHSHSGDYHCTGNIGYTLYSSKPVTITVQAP
Sequence of CD32a167H (P12318 36-218 limits assumed): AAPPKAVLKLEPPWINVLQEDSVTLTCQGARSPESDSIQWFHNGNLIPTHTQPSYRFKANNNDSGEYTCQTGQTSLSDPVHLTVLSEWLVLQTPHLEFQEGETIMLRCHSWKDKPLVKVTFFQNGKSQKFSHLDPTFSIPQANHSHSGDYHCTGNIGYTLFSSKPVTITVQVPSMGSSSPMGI
Sequence of CD32a167R (P12318 36-218 H167R limits assumed): as the sequence (P12318 36-218 limits assumed) above, with H132R counted along it

Substance | Kd (CD16b (FcgammaRIIIb)) [µM] | koff (CD16b (FcgammaRIIIb)) [s⁻¹] | kon (CD16b (FcgammaRIIIb)) [M⁻¹ s⁻¹] | Kd (CD16a176F) [µM] | koff (CD16a176F) [s⁻¹] | kon (CD16a176F) [M⁻¹ s⁻¹] | Kd (CD16a176V) [µM] | koff (CD16a176V) [s⁻¹] | kon (CD16a176V) [M⁻¹ s⁻¹] | Kd (CD32a167H) [µM] | Kd (CD32a167R) [µM] | Kd (CD32b (FcgammaRIIb)) [µM] | fold increase in off-rate relative to CD-WT (CD64 (FcgammaRI)) [fold]
CD-WT antibody (human IgG1, m1,17 allotype, wild-type CD loop) | 0.426 | 0.166 | 389000 | 0.869 | 0.185 | 213000 | 0.241 | 0.181 | 751000 | 0.45 | 0.439 | 1.53 | –
CD-GLU antibody (human IgG1, m1,17 allotype, CD loop replaced by the Glu epitope YMPMENNY) | 0.556 | 0.168 | 302000 | 1.05 | 0.189 | 181000 | 0.334 | 0.146 | 438000 | 0.505 | 0.488 | 1.61 | 1.2
